According to a protein production outcome set (Wang et al. 2014):

experiment: label from the status in PepcDB records

| Sequence | protein production |
| --- | --- |
| MALPASTPPRAKKRFAWIRTLRWYWWLLLFILLGYGLSHIMHWDDRGLLWLKERFESNEERSASIWLPDYHVEIDAKALPGMEKDEASDLSYNPISKTLFAVMGKNAFLVELTLKGDVLRKIPLVGWSNPEGVAVMNDGLIAITDERQHQLTIVKVTADTTTLNIADFPHYELGTSANKNKGFEGVAWDPRRQQLLLGEERPPALYTWKSDGSNVLKGDKQSLLSRALDMRNLSSLSIDPRTGHMLALSADSHMLLEVDEQGNQVSFMTLLGGMNGLKDTIPRAEGVALDEAGTLYMVSEPNLFYSFRKQ | failed |
| MALPESESARTEQALGRLVGSLCVVTAQQGELSSAMLASWVSQATFSPPGLTVAVAKERAIESLLHKNSCFVLNILQEGNHLGLMKHFLKPFAPGGDRFADVATETAENGAPILTESLAYLECRVQQRLECGDHWVLYAVTDRGALLKDGVTAVHHRKSGDHYLEHHHHHH | failed |
| MALPRPTSPHARGSNRTPAIMRLVLGACVPGLLTLTWLYGPGTLLNLAWASLVALACEAAMLALRKRPPGVFLKDGSALVTALLLAVALPPYAPWWLTLVATFFALVFGKHLYGGLGQNPFNPAMLGYVVALVSFPLEMTRWPSPDSALGLPDSLREFLGLATRPDAWAHATALDVLKTDRSLTVDELFAGNPAFGHLGSAGSEWVNLAFLLGGLFLLWRRLFTWHAPLGMLAGLFAMSLLFWNGSGSDSHGSPLFHLFSGATMLGAFFIVTDPVSGATSNRGRLVFGLGVGVLTYVIRAWGGYPDGVAFAVLLMNLAAPTIDYYTRPRTYGHRKAERGFKAGD | failed |
| MALREMIIDESDDIESYSDQSLCLDKAKELLALIKLPTGLLPLKDMTEVGYNKTKGFVWMRMRSKIEHTFREIGRRVLYDTEITAFVEDRRMRRLTGVKSKELMIWVPVNDIFIKRKILRRSPLLIPPACHEHLKFQHFNVRVDKLKEKRSNQTSLM | failed |
| MALRKEDLILIPLVAGVMMGAIDSTIVVLALPTISDDLKAPLSLSIWIILAYLLVAAVSTTQFGRLGDMISRKTIFNSGMAIFTLGSFLCGVSSNIDFLIAFRFVQAAGGSMMQANSGSIIADNFPPNLRGRAYGYTSVGWNSGATLGIVLGGIITTLIGWRYIFYINVPVGIISLYFAIKYIIPGSKKNVKLDVPGVVTLTAALSSIAYAATDFTSHGLETTNETLLSIGFLLLVVFIFLERTNKNALLPFHLFQNRVFNFSIAASFLQSLGYLAVTFIVIMYLQGLRGLTPLDSSLLLVPGYVLGGFTGPIFGKLSDRIGARTPATLGMFLMMIAVLLYMTFNLKTPVYYVIPVSIISGLGSSMFFPANNSAVMASSPAGSYGAASGLLRTMANIGMLGSFVLAITVSTIAIPRYVAFEVFAGVGRLVGGLSASFLTGIHTALEVSFAIIAVGMLFSFVRGKENRSTSTPPRATETTK | failed |
| MALRNVPFRSEVLGWDPDSLADYFKKLNYKDCEKAVKKYHIDGARFLNLTENDIQKFPKLRVPILSKLSQEINKNEERRSIFTRKPQVPRFPEETESHEEDNGGWSSFEEDDYESPNDDQDGEDDGDYESPNEEEEAPVEDDADYEPPPSNDEEALQNSILPAKPFPNSNSMYIDRPPSGKTPQQPPVPPQRPMAALPPPPAGRNHSPLPPPQTNHEEPSRSRNHKTAKLPAPSIDRSTKPPLDRSLAPFDREPFTLGKKPPFSDKPSIPAGRSLGEHLPKIQKPPLPPTTERHERSSPLPGKKPPVPKHGWGPDRRENDEDDVHQRPLPQPALLPMSSNTFPSRSTKPSPMNPLPSSHMPGAFSESNSSFPQSASLPPYFSQGPSNRPPIRAEGRNFPLPLPNKPRPPSPAEEENSLNEEWYVSYITRPEAEAALRKINQDGTFLVRDSSKKTTTNPYVLMVLYKDKVYNIQIRYQKESQVYLLGTGLRGKEDFLSVSDIIDYFRKMPLLLIDGKNRGSRYQCTLTHAAGYP | not failed |
| MALTDNTRGALFMALAMASFTANDALTKSVTPYINTGQIMFVRGVMTVVLIYIAARHFGALRPLKTLLRPIIILRCLCEVTAAVLYLTALGLIEFSNASAILQSLPLVVTLGAALFLREPVGWRRWVAIIVGFIGVLVIIRPGPEGFTPGALLVVASLAVTAARDLLTRKMYADVPSLAITVITAFVNMAVGGLLIVPFGGWQPMNFTIVSHLAGSAILVLVGYQAIILSMRTGEISFVAPFRYTGLLWGFMIGVFFFNEKIDSYTIIGAMIVIGSGLYTFYRESLRKRSQMAKRAAATPTAATTVRPASVTKATVTEEAGE | failed |
| MALVLTFLGKGGVGRTTVAIAAAKKLAQAGQRVLVLGQDPSLAWQWGITLSETAQGVEANVDGLLLSSTHLLERGWEKLKEVEAQYLRSPALKNIYGEELGVLPGMDEVLVLNALREYELSGRYDVLIYDGPGNLSTLRMLGIPEIASWYWRRFQKVLADSEVVQTLSPFVQPVASAVLSVNWSPDQMLNHPDGPQNLLQQGKAAIADPNRFAAYLVTSTDSLAQKAAQSYWGGAQQVGVTVKGVIQTPLGNGSLDANLFDPLLIAALPSYNQGNWQPLMDALPNPQAMGSAPRPLEIDVNARQVKVFLPGFDKRQVKLTQSGPELTIEAGDQRRNIDLPGNLRGKGVTGAKFQGGYLIVSFLEHHHHHH | failed |
| MAMAVSGAVLSGLGSSFLTGGKRGATALASGVGTGAQRVGRKTLIVAAAAAQPKKSWIPAVKGGGNFLDPEWLDGSLPGDFGFDPLGLGKDPAFLKWYREAELIHGRWAMAAVLGIFVGQAWSGVAWFEAGAQPDAIAPFSFGSLLGTQLLLMGWVESKRWVDFFNPDSQSVEWATPWSKTAENFANYTGDQGYPGGRFFDPLGLAGKNRDGVYEPDFEKLERLKLAEIKHSRLAMVAMLIFYFEAGQGKTPLGALGL | failed |
| MAMSGTYVTDVPLKGSAEKHYKRWRSENHLVPEAIGHLIQGVTVHDGDWDSHGTIKIWNYTRDGKEEVLKERIEMDDENMAVTINGLDGHVMEVLKVYVTTLHFIPESKDGCVCKITMVWEKRTEDSPEPIEFMKFVEQMIAHMDDHILQNQE | failed |
| MAMSHLFLSSSPQSSLALRLHSTTQFTLSYSKNNKDCSFQSANEAKVSKRSLLCRAIHMESGHSGEQPKKLNFDNLLRRTKHVWDNSPQPVKEFPWNRAFGNFIQLVLDLAISVVKFLFVPILAVSSISEMSYCAHERKLALVPFPLVIGMVVAGVLQETALKISPRLKEAEVPWHLIAMMMFFTLIKLPGPYYPYWGRLLVPHFANGVLLRALWSMFFWYKKTRNTSGNPLQNHSLETE | failed |
| MAMYIRVKRMKTTYFIQCDPTETVLDVKQKLFALIEQPVNNQRLVLMSTEEVLEDSKSLADQKVENDAVVALTLKKD | not failed |
| MANAENNSVSTRSSELYREISQMDDEIMKLVEQINQPIGRPDFGAIEEARKKLTDKRMKLEELSKRMKEVIKEMEETPKR | failed |
| MANEGGQDAGDEYFADLDYIEVAEQLKEGYESEVDHSDPDAEEDNGGPDAEDDDDFRPNYHYQRKIKRSSRSGSTQNSSTQSSELDSQERAVINFNPNADLDET | failed |
| MANETPKRRILVIRIDFLGDMLCTTAFLGALKRRWPDAELHVVANRYNASALDGNPDVHAVHTYVYSRQCERNDRPGRMRAFFDRLRLVRRLRRLRFDLVVVPNGGMHRSSIQLARQLGVKDCRWHDADSEFDDRKPEHVASRPMCHEALSGFRLVPELGRNDLDGLALSVHPDRALLDTWYRLLGARAKPRVGLFVSNKATERRWPADRWCDLGRRLAPFADVIVFRDPAVSAGAGADGDAWRDVNARHVAPSSVAELVAAASLLDAIVSADSAPVHLASALGVPVAALFEDRPEKYRRWHPLGVPHMILRAGATVDAIGVDAVERAVLHLLEKAGQADDATGGALPLPDVTLVVPAVGAIVS | failed |
